B1: huPrP23-231 (receptor)
chain: not shown
B2: ICSM-18 (antibody, V domains shown)
VH: EVQLQQSGPELVKPGSSVKISCKASRNTFTDYNLDWVKQSHGKTLEWIGNVYPNNGVTGYNQKFRGKATLTVDKSSSTAYMELHSLTSEDSAVYYCALYYYDVSYWGQGTLVTVSA
VL: QIVLTQSPAIMSASPGEKVTMTCSASSSVSYMHWYQQKSGTSPKRWIYDTSKLASGVPARFSGSGSGTSYSLTISSMEAEDAATYFCHQWRSNPYTFGGGTKLEIKR

Experiments:
[1] = molecular target: A[beta]-derived diffusible ligands (ADDL) prepared from A[beta]1-42 (UniProt P05067 672-713)
[2] = molecular target: bADDL preparation from biotinylated A[beta]1-42 (bA[beta]1-42) (UniProt P05067 672-713)
[3] = molecular target: B1

Row | Binder | Kd [1] [nM] | Kd [2] [nM] | fold tighter binding than huPrP91-231 [2] [fold] | Kd [3] [nM] | Ki [3] [nM]
1 | B1 | 100 | 82 | 100 | – | –
2 | B2 | – | – | – | ~10 | ~20
